From patent US20050239706A1, “Modulation of fiaf and the gastrointestinal microbiota as a means to control energy storage in a subject” (Washington University in St. Louis, priority 2003, published 2005)

Legend:
[1] = biological target: Lipoprotein lipase (LPL) (mouse) (UniProt P11152); test: cell-based or functional assay
LPL = biological target: T1, LPL (Homo sapiens, UniProt P06858); conditions: in vitro; read-out: IC50 for inhibition of LPL; cited from earlier work
T1 sequence (P06858 28-475): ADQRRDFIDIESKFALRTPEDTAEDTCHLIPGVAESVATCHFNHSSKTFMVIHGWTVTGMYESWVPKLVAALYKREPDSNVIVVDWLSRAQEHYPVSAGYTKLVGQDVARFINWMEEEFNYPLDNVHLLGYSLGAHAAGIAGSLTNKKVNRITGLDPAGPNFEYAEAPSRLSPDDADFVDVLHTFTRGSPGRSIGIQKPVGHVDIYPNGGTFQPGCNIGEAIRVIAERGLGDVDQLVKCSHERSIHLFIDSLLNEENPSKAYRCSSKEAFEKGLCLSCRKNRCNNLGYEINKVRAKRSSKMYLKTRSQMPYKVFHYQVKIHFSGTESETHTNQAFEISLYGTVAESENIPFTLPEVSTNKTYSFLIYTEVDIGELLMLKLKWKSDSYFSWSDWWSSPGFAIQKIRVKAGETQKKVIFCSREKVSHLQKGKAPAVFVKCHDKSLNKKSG

Lipoprotein lipase (LPL) (mouse), sequence (P11152 28-474 limits assumed): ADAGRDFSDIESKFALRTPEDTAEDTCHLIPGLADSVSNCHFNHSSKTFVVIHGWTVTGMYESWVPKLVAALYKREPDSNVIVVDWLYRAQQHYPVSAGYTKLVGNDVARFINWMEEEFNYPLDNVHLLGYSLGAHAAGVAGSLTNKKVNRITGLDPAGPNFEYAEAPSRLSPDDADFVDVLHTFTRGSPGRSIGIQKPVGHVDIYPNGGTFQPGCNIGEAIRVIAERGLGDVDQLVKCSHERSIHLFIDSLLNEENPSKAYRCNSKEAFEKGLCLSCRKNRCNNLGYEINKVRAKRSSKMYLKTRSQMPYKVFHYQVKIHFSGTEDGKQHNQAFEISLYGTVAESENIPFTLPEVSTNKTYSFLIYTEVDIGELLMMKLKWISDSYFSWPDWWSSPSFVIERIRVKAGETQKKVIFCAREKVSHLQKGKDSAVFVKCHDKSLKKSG

Molecule	epididymal fat pad LPL activity, GF Fiaf-/- mice versus GF littermates containing the wild-type Fiaf allele [1] [% higher]	IC50 (LPL) [nM]
Fasting-induced adipose factor (Fiaf) (from UniProt Q9Z1P8 24-410)	67	–
Fiaf: secreted protein, a potent inhibitor of LPL in vitro (protein) QGRPAQPEPPRFASWDEMNLLAHGLLQLGHGLREHVERTRGQLGALERRMAACGNACQGPKGKDAPFKDSEDRVPEGQTPETLQSLQTQLKAQNSKIQQLFQKVAQQQRYLSKQNLRIQNLQSQIDLLAPTHLDNGVDKTSRGKRLPKMTQLIGLTPNATHLHRPPRDCQELFQEGERHSGLFQIQPLGSPPFLVNCEMTSDGGWTVIQRRLNGSVDFNQSWEAYKDGFGDPQGEFWLGLEKMHSITGNRGSQLAVQLQDWDGNAKLLQFPIHLGGEDTAYSLQLTEPTANELGATNVSPNGLSLPFSTWDQDHDLRGDLNCAKSLSGGWWFGTCSHSNLNGQYFHSIPRQRQERKKGIFWKTWKGRYYPLQATTLLIQPMEATAAS	–	200
